Assay results taken from patent publication US20150307603A1 (MODIQUEST B V, published 2015).
Non-standard residues stand in square brackets, D forms with d. No end group written: not given here. Cit = NC(=O)NCCC[C@H](N)C(=O)O

Experiments:
[1] = biological target: T1, huPAD2-deiminated human recombinant histone 3 (human); assay: ELISA, Ab 0.000128 ug/well
T1 construct: also called H3/p2; histone 3/p2
From the text: (§1) The resulting OD (y-axis) is a measure for antibody binding. H1-recombinant histone 1; H1/p2-huPAD2 recombinant histone 1; H1/p4-huPAD4 recombinant histone 1, and so forth (x-axis).

[2] = biological target: human recombinant histone 4 (human, UniProt P62805 2-103); assay: ELISA, Ab 0.000128 ug/well
From the text: as §1

[3] = biological target: T2, huPAD4-deiminated human recombinant histone 3 (human); assay: ELISA, Ab 0.000128 ug/well
T2 construct: also called H3/p4
From the text: as §1

[4] = biological target: T3, human recombinant histone 2B (human); assay: ELISA, Ab 0.000128 ug/well
T3 construct: Non-deiminated; also called H2B
From the text: as §1

[5] = biological target: T4, huPAD4-deiminated human recombinant histone 2B (human); assay: ELISA, Ab 0.000128 ug/well
T4 construct: also called H2B/p4
From the text: as §1

[6] = biological target: T5, huPAD2-deiminated human recombinant histone 2B (human); assay: ELISA, Ab 0.000128 ug/well
T5 construct: also called H2B/p2
From the text: as §1

[7] = biological target: T6, huPAD2-deiminated human recombinant histone 2A (human); assay: ELISA, Ab 0.000128 ug/well
T6 construct: also called H2A/p2; histone 2A/p2
From the text: as §1

[8] = biological target: T7, peptide no. 5 (human histone 2A) (human, also: biotin-labelled); assay: ELISA, Ab 2 ug/well
T7 construct: also called peptide 5
T7 peptide: VGRVH[Cit]LLRKGN
Description: (§2) Biotin and citrulline-containing peptides derived from histone 2A were immobilized on NEUTRAVIDIN®-coated 96-well ELISA plates (0.3 μg/well). CFC-1 and CFC-0 were coated at the same concentration and served as positive and negative controls, respectively, for specific anti-citrulline reactivity and as coating controls. Non-coated wells were used to test for aspecific binding of the antibodies. […] Detection of bound anti-citrulline antibodies was performed by incubating the wells with rabbit anti-human HRP (1:2000) for 1 hour at RT followed by incubation with TMB substrate. The resulting OD (y-axis) is a measure for antibody binding.

[9] = biological target: T8, peptide no. 3 (human histone 2A) (human, also: biotin-labelled); assay: ELISA, Ab 2 ug/well
T8 construct: also called peptide 3
T8 peptide: KSRSS[Cit]AGLQFP
Description: as §2

[10] = biological target: T9, peptide no. 2 (human histone 2A) (human, also: biotin-labelled); assay: ELISA, Ab 2 ug/well
T9 construct: also called peptide 2
T9 peptide: AKAKS[Cit]SSRAGL
Description: as §2

[11] = biological target: T10, peptide no. 11 (human histone 2A) (human, also: biotin-labelled); assay: ELISA, Ab 2 ug/well
T10 construct: also called peptide 11
T10 peptide: LQLAI[Cit]NDEELN
Description: as §2

[12] = biological target: T11, peptide no. 8 (human histone 2A) (human, also: biotin-labelled); assay: ELISA, Ab 2 ug/well
T11 construct: also called peptide 8
T11 peptide: AGNAA[Cit]DNKKTR
Description: as §2

[13] = biological target: T12, peptide no. 6 (human histone 2A) (human, also: biotin-labelled); assay: ELISA, Ab 2 ug/well
T12 construct: also called peptide 6
T12 peptide: VHRLL[Cit]KGNYSE
Description: as §2

[14] = biological target: T13, peptide no. 12 (human histone 2A) (human, also: biotin-labelled); assay: ELISA, Ab 2 ug/well
T13 construct: also called peptide 12
T13 peptide: NKLLG[Cit]VTIAQG
Description: as §2

[15] = biological target: T14, peptide no. 4 (human histone 2A) (human, also: biotin-labelled); assay: ELISA, Ab 2 ug/well
T14 construct: also called peptide 4
T14 peptide: QFPVG[Cit]VHRLLR
Description: as §2

[16] = biological target: T15, peptide no. 9 (human histone 2A) (human, also: biotin-labelled); assay: ELISA, Ab 2 ug/well
T15 construct: also called peptide 9
T15 peptide: DNKKT[Cit]IIPRHL
Description: as §2

[17] = biological target: T16, peptide no. 10 (human histone 2A) (human, also: biotin-labelled); assay: ELISA, Ab 2 ug/well
T16 construct: also called peptide 10
T16 peptide: TRIIP[Cit]HLQLAI
Description: as §2

[18] = biological target: T17, peptide no. 1 (human histone 2A) (human, also: biotin-labelled); assay: ELISA, Ab 2 ug/well
T17 construct: also called peptide 1; AAASGXGKQGGK
T17 peptide: AAASG[Cit]GKQGGK
Description: as §2

B1: RhmAb2.102 (antibody, human IgG1, lambda)
heavy: not shown
light: QSVLTQPPSMSAAPGQKVTISCSGSSSNIGNNYVSWYQQVPGTAPKLLIYDDNKRPSGIPGRFSGSKSATSATLGITGLQAGDEADYYCGSWDDNLSVVLFGGGTKLTVLGQPKAAPSVTLFPPSSEELQANKATLVCLISDFYPGAVTVAWKADSSPVKAGVETTTPSKQSNNKYAASSYLSLTPEQWKSHRSYSCQVTHEGSTVEKTVAPTECS
notes: Human IgG1 lambda; also called Rhm2.102
OD [1]: 0.066 OD450
OD [2]: 0.06 OD450
OD [3]: 0.06 OD450
OD [4]: 0.052 OD450
OD [5]: 0.053 OD450
OD [6]: 0.051 OD450
OD [7]: 0.063 OD450
OD [8]: 0.111 OD450
OD [9]: 0.286 OD450
OD [10]: 0.27 OD450
OD [11]: 0.067 OD450
OD [12]: 0.06 OD450
OD [13]: 0.752 OD450
OD [14]: 0.067 OD450
OD [15]: 1.3 OD450
OD [16]: 0.063 OD450
OD [17]: 0.07 OD450
OD [18]: 3.05 OD450
